According to publication PMC4915166:

Target: gp91^phox, the catalytic subunit of NADPH oxidase (Nox2) (mouse (endogenous in mouse microglia)) (UniProt Q61093)
Sequence (Q61093 whole entry): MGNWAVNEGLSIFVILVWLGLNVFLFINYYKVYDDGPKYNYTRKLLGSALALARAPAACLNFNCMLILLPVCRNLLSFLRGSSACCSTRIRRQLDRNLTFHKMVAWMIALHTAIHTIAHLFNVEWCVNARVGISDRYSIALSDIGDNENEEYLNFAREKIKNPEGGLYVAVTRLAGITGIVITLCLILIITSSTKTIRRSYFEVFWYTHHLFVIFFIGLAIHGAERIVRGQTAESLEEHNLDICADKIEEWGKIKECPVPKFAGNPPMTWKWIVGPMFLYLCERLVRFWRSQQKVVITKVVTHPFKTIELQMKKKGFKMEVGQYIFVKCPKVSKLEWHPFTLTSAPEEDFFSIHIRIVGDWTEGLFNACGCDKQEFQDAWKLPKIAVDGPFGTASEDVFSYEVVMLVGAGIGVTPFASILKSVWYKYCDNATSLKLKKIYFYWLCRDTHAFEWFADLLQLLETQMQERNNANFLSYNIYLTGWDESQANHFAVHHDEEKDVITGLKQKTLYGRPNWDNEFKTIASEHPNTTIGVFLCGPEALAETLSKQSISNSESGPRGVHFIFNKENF

## A29-V40 α-Syn peptide (WT, unlabeled, purity >98 %) (from UniProt P37840 29-40)
  extracellular superoxide released by mouse microglia (SOD-inhibitable WST-1 reduction), 1.0 μM peptide, increase over the BSA control (% increase compared to the BSA control): 129
